The values below come from US20190389958A1 (MSM PROTEIN TECHNOLOGIES, published 2019).

The labels stand for the following.
T1: hCXCR3 (human, UniProt P49682 1-368)
T1 construct: whole, on cells
T1 sequence (looked up): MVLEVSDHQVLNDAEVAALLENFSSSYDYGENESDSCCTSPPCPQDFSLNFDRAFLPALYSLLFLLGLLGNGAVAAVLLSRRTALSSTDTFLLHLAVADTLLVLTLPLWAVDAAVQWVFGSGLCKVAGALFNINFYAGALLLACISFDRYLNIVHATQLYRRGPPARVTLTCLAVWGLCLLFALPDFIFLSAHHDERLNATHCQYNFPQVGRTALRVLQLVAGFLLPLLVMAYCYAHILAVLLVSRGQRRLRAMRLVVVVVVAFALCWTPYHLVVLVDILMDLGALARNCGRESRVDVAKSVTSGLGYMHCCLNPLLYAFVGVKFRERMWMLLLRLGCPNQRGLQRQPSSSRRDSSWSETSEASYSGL

T2: hCXCR5 (human, UniProt P32302 1-372)
T2 construct: whole, on cells
T2 sequence (looked up): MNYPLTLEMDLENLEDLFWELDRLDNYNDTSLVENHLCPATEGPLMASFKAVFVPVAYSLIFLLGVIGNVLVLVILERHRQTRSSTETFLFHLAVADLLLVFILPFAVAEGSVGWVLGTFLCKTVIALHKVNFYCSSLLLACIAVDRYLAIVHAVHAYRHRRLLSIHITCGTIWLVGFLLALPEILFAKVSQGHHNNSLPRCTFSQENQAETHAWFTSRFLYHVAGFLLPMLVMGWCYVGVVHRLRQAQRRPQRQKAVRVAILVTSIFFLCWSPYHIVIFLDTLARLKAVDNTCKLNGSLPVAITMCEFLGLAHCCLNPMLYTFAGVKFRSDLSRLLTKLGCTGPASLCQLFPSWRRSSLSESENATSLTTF

T3: hCCR9 (human, UniProt P51686 1-369)
T3 construct: whole, on cells
T3 sequence (looked up): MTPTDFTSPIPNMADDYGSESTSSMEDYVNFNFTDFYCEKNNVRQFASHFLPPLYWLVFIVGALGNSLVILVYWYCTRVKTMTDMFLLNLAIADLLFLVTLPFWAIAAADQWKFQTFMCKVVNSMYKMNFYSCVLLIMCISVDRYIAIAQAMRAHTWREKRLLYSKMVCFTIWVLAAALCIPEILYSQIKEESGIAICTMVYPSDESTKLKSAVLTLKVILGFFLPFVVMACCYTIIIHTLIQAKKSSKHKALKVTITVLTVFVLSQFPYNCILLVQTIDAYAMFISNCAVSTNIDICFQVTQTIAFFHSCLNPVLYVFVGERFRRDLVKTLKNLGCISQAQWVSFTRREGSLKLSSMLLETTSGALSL

T4: hCCR7 (human, UniProt P32248 25-378)
T4 construct: whole, on cells
T4 sequence (looked up): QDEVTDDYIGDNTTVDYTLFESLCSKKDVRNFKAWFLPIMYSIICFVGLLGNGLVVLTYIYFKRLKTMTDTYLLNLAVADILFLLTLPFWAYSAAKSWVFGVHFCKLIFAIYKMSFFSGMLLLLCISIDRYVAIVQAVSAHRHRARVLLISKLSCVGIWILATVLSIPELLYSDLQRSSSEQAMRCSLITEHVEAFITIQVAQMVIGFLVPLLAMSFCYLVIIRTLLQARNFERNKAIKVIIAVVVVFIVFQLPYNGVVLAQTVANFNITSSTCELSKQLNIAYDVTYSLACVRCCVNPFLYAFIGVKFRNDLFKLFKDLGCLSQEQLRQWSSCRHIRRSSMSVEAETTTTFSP

B1: V62.1-R108H-m47-m38 (antibody, human IgG1, V domains shown)
VH: EVQLLESGGGLVQPGGSLRLSCAASGFTFSSYAMSWVRQAPGKGLEWVSAISGSGGTRYADSVKGRFTISRDNSKNTLYLQMNSLRAEDTAVYYCARQGKTRVYGYHWHGYGSTHALDYWGQGTLVTVSS
VL: EIVLTQSPGTLSLSPGERATLSCRASQSVSSSYLAWYQQKPGQAPRLLIYGASSRATGIPDRFSGSGSGTDFTLTISRLEPEDFAVYYCQQWSSDSVTFGQGTKVEIKR
notes: Tested as an IgG (human IgG1 format); also called V62.1-H-m47-m38; IgG1 62.1-R108H-m47-m38
B2: V62.1-R108H (antibody, human IgG1, V domains shown)
VH: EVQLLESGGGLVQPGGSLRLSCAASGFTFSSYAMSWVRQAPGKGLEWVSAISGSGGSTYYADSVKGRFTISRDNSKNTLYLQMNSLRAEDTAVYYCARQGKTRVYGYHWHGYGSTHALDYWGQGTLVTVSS
VL: EIVLTQSPGTLSLSPGERATLSCRASQSVSSSYLAWYQQKPGQAPRLLIYGASSRATGIPDRFSGSGSGTDFTLTISRLEPEDFAVYYCQQSDYSYPFTFGQGTKVEIKR
notes: Tested as an IgG (human IgG1 format); also called IgG1 V62.1 R108H
B3: V62.1-R108H-m80 (antibody, human IgG1, V domains shown)
VH: EVQLLESGGGLVQPGGSLRLSCAASGFTISPYSITWVRQAPGKGLEWVSQINSYNGKTYYADSVKGRFTISRDNSKNTLYLQMNSLRAEDTAVYYCARQGKTRVYGYHWHGYGSTHALDYWGQGTLVTVSS
VL: B2 VL
notes: Tested as an IgG (human IgG1 format); also called V62.1-H-m80; V62.1-R108H-m80-Wt
B4: V62.1 (antibody, human IgG1, V domains shown)
VH: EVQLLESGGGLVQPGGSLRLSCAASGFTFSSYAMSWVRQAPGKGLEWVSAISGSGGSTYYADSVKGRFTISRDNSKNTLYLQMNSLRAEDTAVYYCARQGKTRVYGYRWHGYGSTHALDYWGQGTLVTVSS
VL: B2 VL
notes: Tested as an IgG (human IgG1 format; DP47 heavy and DPK22 kappa light frameworks) made in CHO-3E7 cells; also called IgG V62.1

Broadly, the EC50 is the concentration giving half of the maximal effect.

T6 sequence (P25106 whole entry): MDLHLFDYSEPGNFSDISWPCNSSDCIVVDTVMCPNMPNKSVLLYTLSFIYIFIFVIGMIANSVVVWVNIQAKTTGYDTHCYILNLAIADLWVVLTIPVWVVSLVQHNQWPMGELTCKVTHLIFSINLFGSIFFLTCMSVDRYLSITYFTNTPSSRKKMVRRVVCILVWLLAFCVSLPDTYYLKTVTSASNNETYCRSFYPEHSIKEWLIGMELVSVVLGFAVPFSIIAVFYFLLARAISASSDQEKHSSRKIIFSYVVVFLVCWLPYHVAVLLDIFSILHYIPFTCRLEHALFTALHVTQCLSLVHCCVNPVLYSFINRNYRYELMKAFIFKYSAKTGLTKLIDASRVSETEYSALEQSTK
T5 sequence (P61073 whole entry): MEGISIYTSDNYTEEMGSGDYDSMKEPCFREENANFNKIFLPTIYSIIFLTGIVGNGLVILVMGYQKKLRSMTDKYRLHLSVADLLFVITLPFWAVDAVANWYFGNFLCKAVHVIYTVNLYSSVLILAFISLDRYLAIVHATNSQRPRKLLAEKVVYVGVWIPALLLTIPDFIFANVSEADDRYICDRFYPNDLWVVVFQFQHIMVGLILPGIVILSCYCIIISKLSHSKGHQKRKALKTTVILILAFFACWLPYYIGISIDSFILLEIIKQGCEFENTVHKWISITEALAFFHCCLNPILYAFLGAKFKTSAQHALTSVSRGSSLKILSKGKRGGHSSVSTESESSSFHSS

One experiment concerns the target T5, human CXCR4 (human, UniProt P61073 1-352). Briefly: cell-based or functional assay.
For B1, the “% Inhibition of SDF-1alpha-induced chemotaxis of U937 cells (IgG at 100 nM)” value (“% Inhibition” for short) is 78%.

With B2, the “% Inhibition” value was 69%.

In the case of B3, the “% Inhibition” value is 75%.

As to B4, the “% Inhibition” value was 76%.

The target of another experiment is T1, hCXCR3. Description: flow cytometry, IgG 100 nM, cells over-expressing hCXCR3. As to the method: (§1) Cells over-expressing different GPCRs other than CXCR4 and several lines transfected to over-express CXCR4 (R1610-hCXCR4, Cf2Th-hCXCR4 and CHO-hCXCR4) were compared. Cultures were incubated with a test IgG at 100 nM in FACS buffer for 40 min at 4° C. Thereafter, cells were washed twice, stained with anti-human-Fc antibody-PE conjugate (Jackson Immunoresearch Laboratories Inc., West Grove, Pa.), washed twice in FACS buffer and then transferred to FIX buffer. Fluorescence intensities were measured by GUAVA PCA-96 at 425V (in triplicate).
(§2) The expression of GPCRs other than CXCR4 was confirmed using commercially available antibodies (positive controls). For example, a commercial anti-CXCR1 antibody was used as a positive control for confirming the expression of CXCR1 on the CXCR1-transfected CHO cells.
In general terms: In flow cytometry, cells or beads pass a laser one at a time.
Molecule B1 showed an MFI of 2.

The molecule B2 returned an MFI of 3.

In the case of B3, the MFI stood at 2.

In turn, B4 showed an MFI of 3.

The target of the next experiment is T2, hCXCR5. Description: flow cytometry, IgG 100 nM, cells over-expressing hCXCR5. As to the method: as §1, §2
On to B1, for which the MFI was found to be 2.

The molecule B2 came in with an MFI of 3.

On to B3, for which the MFI was 2.

Molecule B4 displayed an MFI of 4.

A further experiment has as its target T6, hCXCR7 (human, UniProt P25106 1-362).
T6 construct: whole, on cells
Description: flow cytometry, IgG 100 nM, cells over-expressing hCXCR7. As to the method:
as §1, §2
In turn, B1 had an MFI of 2.

Turning to B2, the MFI came out at 4.

With B3, the MFI stood at 2.

Consider B4, for which the MFI was 3.

For a further experiment, the target named is T3, hCCR9. Description: flow cytometry, IgG 100 nM, cells over-expressing hCCR9. The method, then:
as §1
B1 showed an MFI of 2.

B2 showed an MFI of 3.

B3 gave an MFI of 8.

Turning to B4, the MFI came out at 4.

The target of the next experiment is T5, human CXCR4. Briefly: flow cytometry on Cf2-Th cells transfected with human CXCR4, IgG1 format. The method, then:
A typical protocol for the fluorescent flow cytometry-based assay was as follows. Ten microliter of a purified test IgG solution or buffer as a control were added to 10 microliter of a suspension containing approximately 30,000 Cf2-Th cells transfected to express human CXCR4. After incubation on ice for 40 min, cells were washed with FACS buffer (phosphate-buffered saline (PBS), pH7.4; 2% fetal calf serum, 0.1% sodium azide) to remove unbound antibodies. Ten microliter of a solution of phycoerythrin (PE)-conjugated mouse anti-human Fc monoclonal antibody (1/20 dilution; catalog number 12-4998-82, eBioscience Inc., San Diego, Calif.) were then added to the cells, and, after a 30-min incubation on ice, cells were washed twice and then formalin-fixed (FIX buffer: PBS, pH7.4; 0.5% formaldehyde). Fixed samples were analysed by fluorescent flow cytometry using a Guava-PCA96 instrument (EMD Millipore Chemicals, Merck KGaA, Darmstadt, Germany).
B1 showed an EC50 of under 10 nM.

The molecule B2 displayed an EC50 of under 10 nM.

On to B3, for which the EC50 is under 10 nM.

As to B4, the EC50 was under 10 nM.

The target of a further experiment is T4, hCCR7. Description: flow cytometry, IgG 100 nM, cells over-expressing hCCR7. The method, then: as §1, §2
B1: the MFI stood at 2.

B2 registered an MFI of 4.

Regarding B4, the MFI was determined as 3.

For a further experiment, the target named is T7, hCXCR6 (human, UniProt O00574 1-342).
T7 construct: whole, on cells
T7 sequence (O00574 whole entry): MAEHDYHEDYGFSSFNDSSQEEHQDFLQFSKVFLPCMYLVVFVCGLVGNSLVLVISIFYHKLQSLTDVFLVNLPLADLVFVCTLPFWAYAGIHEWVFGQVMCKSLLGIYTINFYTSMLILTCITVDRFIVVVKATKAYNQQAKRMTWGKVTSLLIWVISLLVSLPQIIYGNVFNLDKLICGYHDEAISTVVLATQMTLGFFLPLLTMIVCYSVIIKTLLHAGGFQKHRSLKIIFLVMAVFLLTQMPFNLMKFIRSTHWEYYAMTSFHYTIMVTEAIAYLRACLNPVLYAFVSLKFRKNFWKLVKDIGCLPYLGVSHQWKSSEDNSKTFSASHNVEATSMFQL
Briefly: flow cytometry, IgG 100 nM, cells over-expressing hCXCR6. As to the method: as §1, §2
As for B1, the MFI was 2.

Regarding B2, the MFI is 3.

In turn, B3 came in with an MFI of 7.

With B4, the MFI stood at 3.

Another experiment concerns the target T5, human CXCR4. Description: flow cytometry, IgG 100 nM, Cf2Th-hCXCR4 cells. The method, then:
as §1
As for B1, the MFI was determined as 2350.

For the molecule B2, the MFI came to 861.

B3 registered an MFI of 3870.

In turn, B4 showed an MFI of 1270.
